Test results: the Human Domainome abundance scans (Beltran et al. 2025)
± gives the uncertainty stated by the source.

B1: Chromodomain-helicase-DNA-binding protein 7, residues 2564 to 2605; numbered along this chain, Q9P2D1 (parent)
chain: DPDTRIPVINLEDGTRLVGEDAPKNKDLVEWLKLHPTYTVDM

Variants of: B1
Assay: abundance fitness (aPCA) (normalised: wild type 0, dead -1); higher = more abundant; growth selection in yeast, the domain comes from the species named
Conditions: Homo sapiens

Variant | abundance fitness
DPTTRIPVINLEDGTRLVGEDAPKNKDLVEWLKLHPTYTVDM | -0.182 ± 0.05
DPHTRIPVINLEDGTRLVGEDAPKNKDLVEWLKLHPTYTVDM | 0.089 ± 0.087
DPSTRIPVINLEDGTRLVGEDAPKNKDLVEWLKLHPTYTVDM | -0.137 ± 0.051
DPCTRIPVINLEDGTRLVGEDAPKNKDLVEWLKLHPTYTVDM | -0.749 ± 0.22
DPVTRIPVINLEDGTRLVGEDAPKNKDLVEWLKLHPTYTVDM | -0.335 ± 0.095
DPETRIPVINLEDGTRLVGEDAPKNKDLVEWLKLHPTYTVDM | 0.106 ± 0.057
DPGTRIPVINLEDGTRLVGEDAPKNKDLVEWLKLHPTYTVDM | -0.384 ± 0.053
DPQTRIPVINLEDGTRLVGEDAPKNKDLVEWLKLHPTYTVDM | -0.109 ± 0.073
DPLTRIPVINLEDGTRLVGEDAPKNKDLVEWLKLHPTYTVDM | -0.122 ± 0.052
DPFTRIPVINLEDGTRLVGEDAPKNKDLVEWLKLHPTYTVDM | -0.259 ± 0.11
DPDIRIPVINLEDGTRLVGEDAPKNKDLVEWLKLHPTYTVDM | -0.115 ± 0.14
DPDPRIPVINLEDGTRLVGEDAPKNKDLVEWLKLHPTYTVDM | -0.286 ± 0.12
DRDTRIPVINLEDGTRLVGEDAPKNKDLVEWLKLHPTYTVDM | 0.161 ± 0.071
DFDTRIPVINLEDGTRLVGEDAPKNKDLVEWLKLHPTYTVDM | -0.513 ± 0.24
DSDTRIPVINLEDGTRLVGEDAPKNKDLVEWLKLHPTYTVDM | 0.017 ± 0.062
DWDTRIPVINLEDGTRLVGEDAPKNKDLVEWLKLHPTYTVDM | -0.02 ± 0.06
DTDTRIPVINLEDGTRLVGEDAPKNKDLVEWLKLHPTYTVDM | 0.179 ± 0.072
DDDTRIPVINLEDGTRLVGEDAPKNKDLVEWLKLHPTYTVDM | -0.301 ± 0.19
DCDTRIPVINLEDGTRLVGEDAPKNKDLVEWLKLHPTYTVDM | 0.148 ± 0.07
DADTRIPVINLEDGTRLVGEDAPKNKDLVEWLKLHPTYTVDM | -0.031 ± 0.059

Variant | abundance fitness
DLDTRIPVINLEDGTRLVGEDAPKNKDLVEWLKLHPTYTVDM | -0.179 ± 0.06
DHDTRIPVINLEDGTRLVGEDAPKNKDLVEWLKLHPTYTVDM | -0.737 ± 0.18
DQDTRIPVINLEDGTRLVGEDAPKNKDLVEWLKLHPTYTVDM | 0.182 ± 0.059
DIDTRIPVINLEDGTRLVGEDAPKNKDLVEWLKLHPTYTVDM | -0.078 ± 0.1
DGDTRIPVINLEDGTRLVGEDAPKNKDLVEWLKLHPTYTVDM | -0.074 ± 0.066
DPDTRIPFINLEDGTRLVGEDAPKNKDLVEWLKLHPTYTVDM | -0.869 ± 0.089
DPDTRIPIINLEDGTRLVGEDAPKNKDLVEWLKLHPTYTVDM | -0.433 ± 0.45
DPDTRIPCINLEDGTRLVGEDAPKNKDLVEWLKLHPTYTVDM | -0.577 ± 0.27
DPDTRIPGINLEDGTRLVGEDAPKNKDLVEWLKLHPTYTVDM | -0.66 ± 0.079
DPDTRIPRINLEDGTRLVGEDAPKNKDLVEWLKLHPTYTVDM | -0.624 ± 0.15
DPDTRIPDINLEDGTRLVGEDAPKNKDLVEWLKLHPTYTVDM | -0.511 ± 0.16
DPDTRIPEINLEDGTRLVGEDAPKNKDLVEWLKLHPTYTVDM | -0.516 ± 0.11
DPDTRIPPINLEDGTRLVGEDAPKNKDLVEWLKLHPTYTVDM | -0.534 ± 0.075
DPDTRIPSINLEDGTRLVGEDAPKNKDLVEWLKLHPTYTVDM | -0.644 ± 0.2
DPDTRIPKINLEDGTRLVGEDAPKNKDLVEWLKLHPTYTVDM | -0.387 ± 0.17
DPDTRIPWINLEDGTRLVGEDAPKNKDLVEWLKLHPTYTVDM | -0.794 ± 0.15
DPDTRIPLINLEDGTRLVGEDAPKNKDLVEWLKLHPTYTVDM | -0.481 ± 0.1
DPDTRIPNINLEDGTRLVGEDAPKNKDLVEWLKLHPTYTVDM | -0.578 ± 0.13
DPDTRIPAINLEDGTRLVGEDAPKNKDLVEWLKLHPTYTVDM | -0.535 ± 0.18
DPDTRIPHINLEDGTRLVGEDAPKNKDLVEWLKLHPTYTVDM | -0.577 ± 0.11

Variant | abundance fitness
DPDTRIPYINLEDGTRLVGEDAPKNKDLVEWLKLHPTYTVDM | -0.894 ± 0.12
DPDTRIPQINLEDGTRLVGEDAPKNKDLVEWLKLHPTYTVDM | -0.384 ± 0.21
DPDTRIPVIALEDGTRLVGEDAPKNKDLVEWLKLHPTYTVDM | -0.598 ± 0.081
DPDTRIPVIVLEDGTRLVGEDAPKNKDLVEWLKLHPTYTVDM | -0.852 ± 0.086
DPDTRIPVILLEDGTRLVGEDAPKNKDLVEWLKLHPTYTVDM | -1.01 ± 0.076
DPDTRIPVITLEDGTRLVGEDAPKNKDLVEWLKLHPTYTVDM | -0.466 ± 0.2
DPDTRIPVIQLEDGTRLVGEDAPKNKDLVEWLKLHPTYTVDM | -0.738 ± 0.24
DPDTRIPVIMLEDGTRLVGEDAPKNKDLVEWLKLHPTYTVDM | -0.598 ± 0.074
DPDTRIPVIKLEDGTRLVGEDAPKNKDLVEWLKLHPTYTVDM | -0.341 ± 0.065
DPDTRIPVICLEDGTRLVGEDAPKNKDLVEWLKLHPTYTVDM | -0.054 ± 0.059
DPDTRIPVIYLEDGTRLVGEDAPKNKDLVEWLKLHPTYTVDM | -0.989 ± 0.18
DPDTRIPVIGLEDGTRLVGEDAPKNKDLVEWLKLHPTYTVDM | -0.388 ± 0.061
DPDTRIPVIWLEDGTRLVGEDAPKNKDLVEWLKLHPTYTVDM | -0.549 ± 0.22
DPDTRIPVIDLEDGTRLVGEDAPKNKDLVEWLKLHPTYTVDM | -0.154 ± 0.07
DPDTRIPVISLEDGTRLVGEDAPKNKDLVEWLKLHPTYTVDM | -0.025 ± 0.056
DPDTRIPVIILEDGTRLVGEDAPKNKDLVEWLKLHPTYTVDM | -1.4 ± 0.24
DPDTRIPVIHLEDGTRLVGEDAPKNKDLVEWLKLHPTYTVDM | -0.298 ± 0.1
DPDTRIPVIFLEDGTRLVGEDAPKNKDLVEWLKLHPTYTVDM | -0.85 ± 0.065
DPDTRIPVIRLEDGTRLVGEDAPKNKDLVEWLKLHPTYTVDM | -0.409 ± 0.062
DPDTRIPVIELEDGTRLVGEDAPKNKDLVEWLKLHPTYTVDM | -0.786 ± 0.41
